The source of these data is PMC11832919 (Nature Communications, 2025).

One may read the Kd as the concentration at which binding is half-saturated. A higher Kd goes with weaker binding.

The target of this assay is StrepTag II-IsdB (Staphylococcus aureus iron-regulated surface determinant protein B) (S. aureus, UniProt Q2FZF0 41-613). In words: SAXS.
Sequence of StrepTag II-IsdB (Staphylococcus aureus iron-regulated surface determinant protein B) (Q2FZF0 41-613): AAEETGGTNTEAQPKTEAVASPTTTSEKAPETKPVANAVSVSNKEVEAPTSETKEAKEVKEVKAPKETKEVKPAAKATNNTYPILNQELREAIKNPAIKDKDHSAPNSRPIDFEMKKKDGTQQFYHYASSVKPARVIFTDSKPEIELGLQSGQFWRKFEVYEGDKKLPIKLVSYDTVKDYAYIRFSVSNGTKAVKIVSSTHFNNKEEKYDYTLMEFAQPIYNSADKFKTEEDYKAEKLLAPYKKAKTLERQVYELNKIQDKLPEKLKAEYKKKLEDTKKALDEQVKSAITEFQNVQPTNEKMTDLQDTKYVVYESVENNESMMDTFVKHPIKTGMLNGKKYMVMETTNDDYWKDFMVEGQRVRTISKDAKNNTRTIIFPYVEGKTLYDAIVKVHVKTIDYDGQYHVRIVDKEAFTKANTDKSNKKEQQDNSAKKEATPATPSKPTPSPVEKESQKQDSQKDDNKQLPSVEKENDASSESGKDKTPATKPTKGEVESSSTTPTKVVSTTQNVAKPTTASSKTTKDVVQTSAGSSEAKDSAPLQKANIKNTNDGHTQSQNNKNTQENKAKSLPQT

B1: human methemoglobin (coordinating oxidized heme) (complex)
chain 1: not shown
chain 2: not shown
B1 came in with a Kd of 1.68 ± 0.62 µM.
